Earlier results as cited in article PMC3575173.

Biological target: TAMRA-TRTK-12 (UniProt P52907)

In the case of S100B (from UniProt P04271), the Kd is listed as 1.19 µM.
